Biological target: T1, Glutathione synthetase (GSS), full-length wild type, recombinant (human, UniProt P48637 1-474)
T1 sequence (looked up): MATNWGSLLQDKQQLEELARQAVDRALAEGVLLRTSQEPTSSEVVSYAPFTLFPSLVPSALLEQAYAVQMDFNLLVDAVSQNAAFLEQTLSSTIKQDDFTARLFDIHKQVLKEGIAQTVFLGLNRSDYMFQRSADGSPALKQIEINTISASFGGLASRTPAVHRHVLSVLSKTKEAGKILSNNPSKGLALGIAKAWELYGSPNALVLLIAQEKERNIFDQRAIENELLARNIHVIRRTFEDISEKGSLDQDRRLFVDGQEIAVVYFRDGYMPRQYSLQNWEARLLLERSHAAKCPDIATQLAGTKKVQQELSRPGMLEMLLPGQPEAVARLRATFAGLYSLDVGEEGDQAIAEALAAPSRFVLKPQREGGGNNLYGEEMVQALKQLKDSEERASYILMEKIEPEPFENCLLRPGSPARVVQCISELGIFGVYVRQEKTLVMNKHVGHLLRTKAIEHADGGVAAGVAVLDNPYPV
Test: SPR

B1: Human LMPTP-A (low-molecular weight protein tyrosine phosphatase, isoform A) (enzyme, UniProt P24666 1-158, looked up)
chain: MAEQATKSVLFVCLGNICRSPIAEAVFRKLVTDQNISENWRVDSAATSGYEIGNPPDYRGQSCMKRHGIPMSHVARQITKEDFATFDYILCMDESNLRDLNRKSNQVKTCKAKIELLGSYDPQKQLIIEDPYYGNDSDFETVYQQCVRCCRAFLEKAH
B1 was tested, and the Kd was 244 ± 2 nM and the “stoichiometry N” value was 1.

Reference: PMC10830117 (Science Advances, 2024)
